Consider six molecules from US20220153869A1 (TAVOTEK BIOTHERAPEUTICS HONG KONG, published 2022).

Substitutions are numbered along the chain they refer to.

Test [1] deals with T1, recombinant human HER2 (R&D systems) (human, UniProt P04626 23-652). The test is described as follows: ELISA, recombinant human HER2 coated; masked antibody, not digested. How it is done: (§1) ELISA-based binding assays were employed to evaluate the binding to HER2 by exemplary HER2 x VEGF bispecific antibodies with or without IGF2 masking domain (FIG. 9). In these assays, 1 μg/mL recombinant human HER2 (R&D systems) were coated on ELISA plate. Increasing concentrations of exemplary HER2 x VEGF bispecific antibodies were applied on the plate and their bindings to the recombinant human HER2 were detected by HRP-conjugated anti-human IgG secondary antibody.
(An ELISA detects its analyte on a solid surface through an enzyme-linked reagent.)

Test [2] has as its target T2, HER2 expressed on SK-BR-3 cell surface (UniProt P04626 23-1255, limits assumed).
T2 construct: whole, on cells; also called cell surface HER2; HER2-expressing SK-BR-3 cells
Nature of the test: flow cytometry on SK-BR-3 cells; masked antibody, not digested. The source says: (§2) Flow cytometry-based binding assays were also employed to evaluate the binding to HER2 expressed on cell surface by exemplary HER2 x VEGF bispecific antibodies with or without IGF2 masking domain (FIG. 10). In these assays, increasing concentrations of exemplary HER2 x VEGF bispecific antibodies were applied to HER2-expressing SK-BR-3 cells and their bindings to cell surface HER2 were detected by PE-conjugated anti-human secondary antibody by MacsQuant flow cytometer.
Background: In flow cytometry, cells or beads pass a laser one at a time.

Test [3] addresses T1, recombinant human HER2 (R&D systems). Nature of the test: ELISA, recombinant human HER2 coated; unmasked reference of the comparison (higher potency than uncut). On the procedure:
as §1

In test [4] the target is T2, HER2 expressed on SK-BR-3 cell surface. The test is described as follows: flow cytometry on SK-BR-3 cells; unmasked reference of the comparison (higher potency than uncut).
Excerpt: as §2

Test [5] addresses recombinant human PD-L1 (R&D systems) (human, UniProt Q9NZQ7 19-239). Nature of the test: ELISA, recombinant human PD-L1 coated at 1 ug/mL, anti-human IgG-HRP. How it is done:
ELISA-based binding assays were employed to evaluate the binding to PD-L1 by these bispecific antibodies (FIG. 31A). In these assays, 1 μg/mL recombinant human PD-L1 (R&D systems) were coated on ELISA plate. Increasing concentrations of exemplary HER2 x VEGF bispecific antibodies with ScFv of an anti-PD-L1 antibody as a homing domain were applied on the plate and their bindings to the recombinant human PD-L1 were detected by HRP-conjugated anti-human IgG secondary antibody.

Test [6] has as its target T2, HER2 expressed on SK-BR-3 cell surface. Nature of the test: flow cytometry on SK-BR-3 cells, PE anti-human secondary.
Excerpt: as §2

The target in test [7] is T1, recombinant human HER2 (R&D systems). The test is described as follows: ELISA, recombinant human HER2 coated at 1 ug/mL, anti-human IgG-HRP. On the procedure:
as §1

recombinant human PD-L1 (R&D systems), sequence (Q9NZQ7 19-239 limits assumed): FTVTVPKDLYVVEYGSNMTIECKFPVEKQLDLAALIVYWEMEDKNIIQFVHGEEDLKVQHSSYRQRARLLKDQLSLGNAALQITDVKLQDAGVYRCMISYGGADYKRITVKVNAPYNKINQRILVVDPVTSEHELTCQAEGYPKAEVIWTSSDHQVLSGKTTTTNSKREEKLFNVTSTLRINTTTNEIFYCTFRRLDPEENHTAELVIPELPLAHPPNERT

B1: IGF2_MMP2_TrasVH1VL1 x BevaVH3VL1_IgG1_LS_E345R uncut (bispecific antibody)
heavy 1: GILEECCFRSCDLALLETYCAGGGGSPLGLAGGGGGSQVQLVQSGAEVKKPGSSVKVSCKASGFNIKDTYIHWVRQAPGQGLEWMGRIYPTNGYTRYAQKFQGRATITADESTSTAYMEVSSLRSEDTAVYYCSRWGGDGFYAMDYWGQGTLVTVSSASTKGPSVFPLAPSSKSTSGGTAALGCLVKDYFPEPVTVSWNSGALTSGVHTFPAVLQSSGLYSLSSVVTVPSSSLGTQTYICNVNHKPSNTKVDKKVEPKSCDKTHTCPPCPAPELLGGPSVFLFPPKPKDTLMISRTPEVTCVVVDVSHEDPEVKFNWYVDGVEVHNAKTKPREEQYNSTYRVVSVLTVLHQDWLNGKEYKCKVSNKALPAPIEKTISKAKGQPRRPQVYTLPPSRDELTKNQVSLTCLVKGFYPSDIAVEWESNGQPENNYKTTPPVLDSDGSFLLYSKLTVDKSRWQQGNVFSCSVLHEALHSHYTQKSLSLSPGK
light 1: AYRPSETLCGGELVDTLQFVCGDRGFAFGGGGSPLGLAGGGGGSDIVMTQTPLSLPVTPGEPASISCRASQDVNTAVAWYLQKPGQSPQLLIYSASFRYTGVPDRFSGSGSGTDFTLKISRVEAEDVGVYYCQQHYTTPPTFGQGTKVEIKRTVAAPSVFIFPPSDEQLKSGTASVVCLLNNFYPREAKVQWKVDNALQSGNSQESVTEQDSKDSTYSLSSTLTLSKADYEKHKVYACEVTHQGLSSPVTKSFNRGEC
heavy 2: GILEECCFRSCDLALLETYCAGGGGSPLGLAGGGGGSQVQLVQSGAEVKKPGSSVKVSCKASGYTFTNYGMNWVRQAPGQGLEWMGWINTYTGEPTYAQKFQGRVTITADESTSTAYMELSSLRSEDTAVYYCAKYPHYYGSSHWYFDVWGQGTLVTVSSASTKGPSVFPLAPSSKSTSGGTAALGCLVKDYFPEPVTVSWNSGALTSGVHTFPAVLQSSGLYSLSSVVTVPSSSLGTQTYICNVNHKPSNTKVDKKVEPKSCDKTHTCPPCPAPELLGGPSVFLFPPKPKDTLMISRTPEVTCVVVDVSHEDPEVKFNWYVDGVEVHNAKTKPREEQYNSTYRVVSVLTVLHQDWLNGKEYKCKVSNKALPAPIEKTISKAKGQPRRPQVYTLPPSRDELTKNQVSLTCLVKGFYPSDIAVEWESNGQPENNYKTTPPVLDSDGSFFLYSRLTVDKSRWQQGNVFSCSVLHEALHSHYTQKSLSLSPGK
light 2: not shown
Take B1: the binding result in test [1] and in test [2] was “binds” in each case.

B2: TrasVH1VL1 x BevaVH3VL1_IgG1_LS (bispecific antibody)
heavy 1: QVQLVQSGAEVKKPGSSVKVSCKASGFNIKDTYIHWVRQAPGQGLEWMGRIYPTNGYTRYAQKFQGRATITADESTSTAYMEVSSLRSEDTAVYYCSRWGGDGFYAMDYWGQGTLVTVSSASTKGPSVFPLAPSSKSTSGGTAALGCLVKDYFPEPVTVSWNSGALTSGVHTFPAVLQSSGLYSLSSVVTVPSSSLGTQTYICNVNHKPSNTKVDKKVEPKSCDKTHTCPPCPAPELLGGPSVFLFPPKPKDTLMISRTPEVTCVVVDVSHEDPEVKFNWYVDGVEVHNAKTKPREEQYNSTYRVVSVLTVLHQDWLNGKEYKCKVSNKALPAPIEKTISKAKGQPREPQVYTLPPSRDELTKNQVSLTCLVKGFYPSDIAVEWESNGQPENNYKTTPPVLDSDGSFLLYSKLTVDKSRWQQGNVFSCSVLHEALHSHYTQKSLSLSPGK
light 1: DIVMTQTPLSLPVTPGEPASISCRASQDVNTAVAWYLQKPGQSPQLLIYSASFRYTGVPDRFSGSGSGTDFTLKISRVEAEDVGVYYCQQHYTTPPTFGQGTKVEIKRTVAAPSVFIFPPSDEQLKSGTASVVCLLNNFYPREAKVQWKVDNALQSGNSQESVTEQDSKDSTYSLSSTLTLSKADYEKHKVYACEVTHQGLSSPVTKSFNRGEC
heavy 2: QVQLVQSGAEVKKPGSSVKVSCKASGYTFTNYGMNWVRQAPGQGLEWMGWINTYTGEPTYAQKFQGRVTITADESTSTAYMELSSLRSEDTAVYYCAKYPHYYGSSHWYFDVWGQGTLVTVSSASTKGPSVFPLAPSSKSTSGGTAALGCLVKDYFPEPVTVSWNSGALTSGVHTFPAVLQSSGLYSLSSVVTVPSSSLGTQTYICNVNHKPSNTKVDKKVEPKSCDKTHTCPPCPAPELLGGPSVFLFPPKPKDTLMISRTPEVTCVVVDVSHEDPEVKFNWYVDGVEVHNAKTKPREEQYNSTYRVVSVLTVLHQDWLNGKEYKCKVSNKALPAPIEKTISKAKGQPREPQVYTLPPSRDELTKNQVSLTCLVKGFYPSDIAVEWESNGQPENNYKTTPPVLDSDGSFFLYSRLTVDKSRWQQGNVFSCSVLHEALHSHYTQKSLSLSPGK
light 2: not shown
With B2, the binding result in test [3] and in test [4] was “binds” in each case.

B3: TrasVH1VL1 x BevaVH3VL1_IgG1_LS_E345R (bispecific antibody)
heavy 1: B2 heavy 1 with E348R
light 1: B2 light 1
heavy 2: B2 heavy 2 with E351R
light 2: not shown
For B3, the binding result in test [3] and in test [4] was “binds” each time.

B4: Tras x Beva_IgG1_LS (bispecific antibody)
heavy 1: not shown
light 1: not shown
heavy 2: EVQLVESGGGLVQPGGSLRLSCAASGYTFTNYGMNWVRQAPGKGLEWVGWINTYTGEPTYAADFKRRFTFSLDTSKSTAYLQMNSLRAEDTAVYYCAKYPHYYGSSHWYFDVWGQGTLVTVSSASTKGPSVFPLAPSSKSTSGGTAALGCLVKDYFPEPVTVSWNSGALTSGVHTFPAVLQSSGLYSLSSVVTVPSSSLGTQTYICNVNHKPSNTKVDKKVEPKSCDKTHTCPPCPAPELLGGPSVFLFPPKPKDTLMISRTPEVTCVVVDVSHEDPEVKFNWYVDGVEVHNAKTKPREEQYNSTYRVVSVLTVLHQDWLNGKEYKCKVSNKALPAPIEKTISKAKGQPREPQVYTLPPSRDELTKNQVSLTCLVKGFYPSDIAVEWESNGQPENNYKTTPPVLDSDGSFFLYSRLTVDKSRWQQGNVFSCSVLHEALHSHYTQKSLSLSPGK
light 2: not shown
notes: also called HER2 x VEGF bispecific antibody
For the molecule B4, the binding result in test [5] was “no binding”.

B5: Tras x Beva_IgG1_LS_E345R (bispecific antibody)
heavy 1: not shown
light 1: not shown
heavy 2: B4 heavy 2 with E351R
light 2: not shown
Regarding B5, the binding result in test [5] is “no binding”.

B6: Beva_IgG1_LS (antibody, V domains shown)
VH: EVQLVESGGGLVQPGGSLRLSCAASGYTFTNYGMNWVRQAPGKGLEWVGWINTYTGEPTYAADFKRRFTFSLDTSKSTAYLQMNSLRAEDTAVYYCAKYPHYYGSSHWYFDVWGQGTLVTVSS
VL: DIQMTQSPSSLSASVGDRVTITCSASQDISNYLNWYQQKPGKAPKVLIYFTSSLHSGVPSRFSGSGSGTDFTLTISSLQPEDFATYYCQQYSTVPWTFGQGTKVEIKR
notes: also called EAC291/EAC207
As to B6, the binding result in test [6] and in test [7] was “no binding” each time.
